Source: publication PMC7730189

Assays:
[1] = test system: RcuCCA (CCA-adding enzyme, tRNA nucleotidyltransferase) (Romanomermis culicivorax); assay: EMSA; conditions: 6 mM Mg2+; HEPES/KOH pH 7.6, 30 mM KCl, 6 mM MgCl2, 20 C, 10 min; 0.5 pmol tRNA, 0-4 uM enzyme; 5% native PAGE; n = 3
[2] = test system: Chimera E (HsaCCA with RcuCCA beta-turn region) (Homo sapiens / Romanomermis culicivorax chimera); assay: EMSA; conditions: 6 mM Mg2+; HEPES/KOH pH 7.6, 30 mM KCl, 6 mM MgCl2, 20 C, 10 min; 0.5 pmol tRNA, 0-4 uM enzyme; 5% native PAGE; n = 3

Row | Substance | Kd [1] [nM] | Kd [2] [nM]
1 | GCGGAUUUAGCUCAGUUGGGAGAGCGCCAGACUGAAGAUCUGGAGGUCCUGUGUUCGAUCCACAGAAUUCGCA [tRNAPhe (lacking CCA)] | 1300 | 
2 | mt-tRNAIle (armless, lacking CCA) | 1400 | 1800
